Experimental data from publication PMC4514675, “Novel Apo E-Derived ABCA1 Agonist Peptide (CS-6253) Promotes Reverse Cholesterol Transport and Induces Formation of preβ-1 HDL In Vitro” (PLoS ONE, 2015).
Values joined by “and” are separate entries in the source; they are usually repeats but may differ in a detail not shown here. Identical values can stand only once. Values belong to the compound of their own block, whether it stands above or below them.

Columns and labels:
SR-BI = experiment: SR-BI-mediated cholesterol uptake in Fu5AH hepatoma cells; format: cell-based, rat; conditions: 2 h pretreatment of Fu5AH cells; uptake from CS-6253 or apo A-I nHDL
Method: J774 cells were labeled for 24h with ^3[H]-cholesterol (Perkin Elmer, Norwalk, Connecticut) in medium containing 1% FBS. Unlabeled rat Fu5AH hepatoma cells that express high levels of SR-BI, were prepared as described previously. Fu5AH were first seeded on 24-well plate at a density of 2x10^5 cells/well in DMEM plus 10% FBS. SR-BI mediated cholesterol uptake is determined as previously reported. The nHDL particles were generated in media cell culture after 6h incubation of cAMP stimulated J774 cells with increased molar concentrations relative to native apo A-I of lipid free CS-6253 (0, 0.018, 0.071, 0.179, 0.357, 0.536, 0.714, and 1.071 μM). […] The total of ^3H-label present in the lipid extract from cells (% cpm) was quantified by liquid scintillation, and plotted as cell-associated radioactivity as described by Yancey et al.. The contribution of SR-BI to the influx of HDL cholesterol (HDL-C) was assessed by a 2h pretreatment of Fu5AH cells with blocker of lipid transport-1 (BLT-1) to inhibit any transport of cholesterol from HDL to the cells via SR-BI [31]. […]
Fig 10 Uptake of cholesterol to hepatic cells expressing SR-BI from plasma containing HDL-CS-6253 or HDL-apo A-I. A. Fu5AH liver hepatoma cells expression of SR-BI transporter ability. […] Protein concentration was determined by standard assay (Bio-Rad). […]

LCAT = LCAT activity (fractional esterification rate) in human plasma; format: biochemical; conditions: 2 mM DTNB, 1 h, 37°C
Method: Supplementary file pone.0131997.s011.tif: S10 Fig Dynamics of esterification of nascent […]-6253 particles were labelled with cell derived ^3[H]cholesterol and incubated with a normolipidemic plasma at a ratio of (1μg peptide: 10μg plasma apo A-I). LCAT activity was determined after incubation for 1h at 37°C in the presence or absence of 2 mM DTNB. After lipid extraction, ^3[H]cholesterol (unesterified) and ^3[H]CE from plasma were separated by TLC and assayed for radioactivity as described in the online-only Supplementary appendix, S1 Appendix. LCAT activity was measured as CE divided by cholesterol/h. Results are mean (±SD) of triplicate experiments. *P<0.05. (TIF) Click here for additional data file. The fractional cholesterol esterification rate (FER) of LCAT activity was assayed with standard methodology (1,2). […] Cholesterol labeled nHDL particles, Lp-CS-6253 or […] plasma apo A-I), are incubated in total plasma pooled from healthy control subjects for 1h at 37 °C (3). This ratio is selected based on the assumption that the in vivo nascent HDL pool represented ∼10% of total plasma apoA-I mass (4). […] Cellular lipids were extracted and ^3[H]cholesterol and ^3[H]cholesteryl esters (CE) were separated by TLC. The lipids ^3[H]free cholesterol and ^3[H]CE were located by exposure to iodine vapor, and were scraped into liquid scintillating vials and assayed for radioactivity. […]

[1] = biological target: ABCA1 (human, expressed in BHK cells) (human) (UniProt O95477); experiment: cross-linking; intact mifepristone-stimulated BHK-ABCA1 cells in the presence of apo A-I or CS-6253 (0.96 μM), cross-linked or not with 500 μM DSP; lysis with 0.5% n-dodecylmaltoside; SDS-PAGE (4–22.5%), anti-ABCA1 blot; no DTT
[2] = tested on: HDL subpopulations in human plasma; experiment: HDL subpopulation remodelling (preβ-1 HDL formation) in human plasma, 2D-PAGGE; conditions: 10 μg lipid free apoA-I: 1 μg plasma apoA-I, 37°C
Method: Apo A-I and CS-6253-containing particles were separated according to charge (agarose, horizontal axis) and size (polyacrylamide gradient, 3% to 20% gel, vertical axis) as previously described. Apo A-I-containing particles were detected by incubating the membranes with immunopurified polyclonal anti-apo A-I antibody (Biodesign). The nHDL-CS-6253 containing particles were detected with immunopurified polyclonal anti-CS-6253 antibody (Biosynthesis Inc., Lewisville, TX). The anti-CS-6253 is a purified rabbit IgG polyclonal antibody specifically produced by Biosynthesis Inc. It is. Cross reactivity of this antibody was verified by Nondenaturing gradient gel electrophoresis (ND-PAGGE) 5% to 35% [24]. The anti-CS-6253 antibody recognizes only CS-6253 peptide in plasma; neither apo A-I nor apo E were detected by this antibody after separation by gradient gel electrophoresis respectively (Fig 1A, 1B and 1C). […]
Fig 8 Time dependent effects of incubation of lipid free CS-6253 with human plasma, on HDL subparticles. […] HDL subpopulations were detected by an anti-apo A-I antibody. […] HDL subfractions were detected by an antibody against CS-6253. […]
Fig 9 Time dependent effects of incubation of lipid free CS-6253 with human plasma, on HDL subparticles. […] Samples were separated by 2D-PAGGE, and ^125I-apoA-I was detected by autoradiography. […]

ABCA1 = ABCA1 (Homo sapiens, UniProt O95477); experiment: ABCA1-mediated cholesterol efflux from BHK-ABCA1 cells, acceptor in media; format: cell-based; design: expressed in transfected cells; host or cells: BHK cells, stably transfected, induced with 10 nM mifepristone (gift of J. F. Oram); conditions: BHK-ABCA1 induced with mifepristone, 4 h, 37°C, mean ± SD
Chain of ABCA1 (O95477 whole entry): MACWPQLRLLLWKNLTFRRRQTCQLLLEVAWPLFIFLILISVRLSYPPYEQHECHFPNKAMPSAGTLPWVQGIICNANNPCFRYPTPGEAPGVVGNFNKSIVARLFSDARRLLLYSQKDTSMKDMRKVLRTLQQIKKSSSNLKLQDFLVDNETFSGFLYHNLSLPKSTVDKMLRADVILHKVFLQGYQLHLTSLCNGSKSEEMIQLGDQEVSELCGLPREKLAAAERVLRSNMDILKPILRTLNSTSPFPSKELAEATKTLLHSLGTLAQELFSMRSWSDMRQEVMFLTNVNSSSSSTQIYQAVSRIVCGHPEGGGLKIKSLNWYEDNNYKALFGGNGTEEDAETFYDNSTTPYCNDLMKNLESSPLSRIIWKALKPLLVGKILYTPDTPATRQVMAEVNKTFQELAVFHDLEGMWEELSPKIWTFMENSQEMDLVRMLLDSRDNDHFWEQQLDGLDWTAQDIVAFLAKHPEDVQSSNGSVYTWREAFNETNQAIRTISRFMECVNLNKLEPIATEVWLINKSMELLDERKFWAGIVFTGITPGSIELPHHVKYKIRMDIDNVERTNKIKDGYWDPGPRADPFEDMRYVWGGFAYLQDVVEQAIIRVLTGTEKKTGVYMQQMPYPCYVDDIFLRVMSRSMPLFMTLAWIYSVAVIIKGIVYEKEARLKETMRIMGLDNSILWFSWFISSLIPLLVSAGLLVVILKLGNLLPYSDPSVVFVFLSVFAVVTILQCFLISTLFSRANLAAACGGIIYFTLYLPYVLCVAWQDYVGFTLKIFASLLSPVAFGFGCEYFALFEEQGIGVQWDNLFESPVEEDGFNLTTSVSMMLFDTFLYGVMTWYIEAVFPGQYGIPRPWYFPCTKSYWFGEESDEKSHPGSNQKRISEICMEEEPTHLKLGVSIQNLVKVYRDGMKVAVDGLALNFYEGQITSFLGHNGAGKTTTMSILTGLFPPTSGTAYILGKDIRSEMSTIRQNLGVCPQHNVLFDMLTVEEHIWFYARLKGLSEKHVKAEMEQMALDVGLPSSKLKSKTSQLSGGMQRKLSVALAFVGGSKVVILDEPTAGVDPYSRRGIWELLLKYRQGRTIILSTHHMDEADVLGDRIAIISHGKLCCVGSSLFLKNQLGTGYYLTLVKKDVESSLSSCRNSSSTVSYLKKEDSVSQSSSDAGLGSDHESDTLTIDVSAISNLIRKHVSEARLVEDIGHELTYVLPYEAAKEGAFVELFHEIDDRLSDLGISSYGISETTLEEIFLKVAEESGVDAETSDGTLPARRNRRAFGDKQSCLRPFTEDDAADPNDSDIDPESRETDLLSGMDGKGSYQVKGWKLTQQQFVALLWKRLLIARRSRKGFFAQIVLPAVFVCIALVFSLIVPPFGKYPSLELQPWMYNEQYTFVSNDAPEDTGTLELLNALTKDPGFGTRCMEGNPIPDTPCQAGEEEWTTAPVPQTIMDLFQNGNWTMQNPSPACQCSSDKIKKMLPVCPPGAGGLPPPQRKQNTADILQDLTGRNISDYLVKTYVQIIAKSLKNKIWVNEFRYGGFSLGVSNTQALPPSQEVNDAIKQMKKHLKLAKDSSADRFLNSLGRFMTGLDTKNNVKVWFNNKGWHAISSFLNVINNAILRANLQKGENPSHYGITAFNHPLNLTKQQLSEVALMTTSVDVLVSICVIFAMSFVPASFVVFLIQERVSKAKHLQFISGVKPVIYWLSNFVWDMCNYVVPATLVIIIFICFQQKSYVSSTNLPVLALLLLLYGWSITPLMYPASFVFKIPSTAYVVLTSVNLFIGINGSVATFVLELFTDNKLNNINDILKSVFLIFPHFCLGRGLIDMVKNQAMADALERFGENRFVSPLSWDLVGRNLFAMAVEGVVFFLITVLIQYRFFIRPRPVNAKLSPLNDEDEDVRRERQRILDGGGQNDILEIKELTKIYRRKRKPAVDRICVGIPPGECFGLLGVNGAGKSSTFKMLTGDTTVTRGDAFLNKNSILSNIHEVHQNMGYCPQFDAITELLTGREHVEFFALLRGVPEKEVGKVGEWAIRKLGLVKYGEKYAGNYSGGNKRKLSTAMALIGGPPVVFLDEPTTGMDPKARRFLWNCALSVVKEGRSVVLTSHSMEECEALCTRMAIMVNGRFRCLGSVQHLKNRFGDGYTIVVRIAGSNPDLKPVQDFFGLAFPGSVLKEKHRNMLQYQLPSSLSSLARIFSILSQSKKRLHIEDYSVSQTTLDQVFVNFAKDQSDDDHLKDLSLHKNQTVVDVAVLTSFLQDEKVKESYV
Description: BHK cells stably transfected with an ABCA1 or ABCG1 expression vector that is mifepristone inducible and cells transfected with the same vector lacking the ABCA1 cDNA insert (mutant or mock-transfected) were generously provided by the late Dr. John F. Oram from the Department of Medicine, University of Washington, and were characterized and cultured as previously described. […] Mouse-derived peritoneal macrophages J774 were purchased from American Tissue Culture Collection (ATCC TIB-67, Cederlane, Burlington, Canada). For induction of ABCA1, BHK cells were incubated for 18–20 h with 10 nM mifepristone. J774 macrophages were stimulated with 0.3 mM Cpt-cAMP 8-(4-Chlorophenylthio)-cyclic adenosine monophosphate (Sigma). All BHK and J774 macrophages cells were respectively grown and maintained in DMEM and RPMI containing 10% fetal serum until experimental treatment. Studies were carried out on standard 24-well plates (150,000 cells/well) unless stated otherwise
We investigated cholesterol efflux from BHK cells after adding lipid free CS-6253 to media cell culture or to human EDTA-plasma which had been stored at -80°C. BHK overexpressing human ABCA1 were labeled with 2 μCi/ml ^3H-free cholesterol (Perkin Elmer, Norwalk, Connecticut) for 24 h. Afterward, BHK-ABCA1 were stimulated with 10 nmol/l mifepristone for 18–20 h (13). Cells were incubated with various doses of acceptor in media for 4 h at 37°C. Alternatively, plasma samples were first pre-incubated for 5 min at 37°C in plasma at mole ratios (10:1 or 1:1 relative to plasma apo A-I). To obtain the HDL fraction, apoB lipoproteins were precipitated from plasma by polyethylene glycol (PEG). […]
Fig 2 Effect of CS-6253 treatment on cholesterol efflux. […] Cholesterol efflux from either ABCA1 cells or control cells to apo A-I (closed circles), and CS-6253 (closed triangles) was determined at the indicated time points. […] ABCA1 was detected from THP-1 foam cells lysis at 4°C with lysis buffer containing 0.5% n-dodecylmaltoside in the presence of a protease inhibitor mixture followed by low speed centrifugation to remove cell debris. Protein concentration was determined by standard assay (Bio-Rad). […] After electrophoresis, ABCA1 was detected by an anti-ABCA1 antibody. […] E. Quantification of FC and CE in foam cells after interaction with CS-6253 and apoA-I. After a period of 4h cholesterol efflux, THP-1 foam cell lipids were extracted with hexane: isopropanol (3v/2v) as under ‘‘Material and Methods’. 3[H]-FC and 3[H]-CE were separated by TLC and located by exposure to iodine vapor, and were scraped off into liquid scintillating vials and assayed for radioactivity. […]

Compound: CCCCCCC1CCCC1=NNC(N)=S (stereo not drawn) [BLT-1]
effect on cholesterol uptake (in words) (SR-BI): inhibited uptake of cholesterol from CS-6253 or apo A-I nHDL

Compound: O=C(O)c1cc(SSc2ccc([N+](=O)[O-])c(C(=O)O)c2)ccc1[N+](=O)[O-] [DTNB, 5,5′-Dithiobis(2-nitrobenzoic acid)]
inhibition of LCAT (LCAT): 98.37 ± 0.08%

ratio of ABCA1 dimer: monomer (cells with CS-6253) [1]: 56.5%
ratio of ABCA1 dimer: monomer (cells with apo A-I) [1]: 69.2%
stoichiometry N [1]: 2
Compound: ABCA1 (human, expressed in BHK cells), O95477 1-2261

Compound: ^125I-lipid free apoA-I: apo A-I iodinated with 125I by Iodo-Gen
increase in preβ-1 particles, 5 min (125I-apoA-I control) ([2]; 5 min): 0.23 fold
increase in preβ-1 particles, 2 h (125I-apoA-I control) ([2]; 2 h): 0.4 fold

Compound: apolipoprotein E [apo E]
Km, cholesterol efflux (ABCA1): 10.30±2.84 μg/ml and 0.21±0.05 μM
Vmax, cholesterol efflux (ABCA1): 11.45±1.16 % efflux/4h
